Data on two molecules can be found in patent US20220227827A1 (DINGFU BIOTARGET, published 2022).

B2: Human IL10R1 (receptor)
chain: HGTELPSPPSVWFEAEFFHHILHWTPIPNQSESTCYEVALLRYGIESWNSISNCSQTLSYDLTAVTLDLYHSNGYRARVRAVDGSRHSNWTVTNTRFSVDEVTLTVGSVNLEIHNGFILGKIQLPRPKMAPANDTYESIFSHFREYEIAIRKVPGNFTFTHKKVKHENFSLLTSGEVGEFCVQVKPSVASRSNKGMWSKEECISLTRQYFTVTN
notes: Bought recombinant protein coated on the ELISA plate; also called hIL10R1; human IL10R1 proteins

The target in the experiment “Human IL10R1” is B2. The experiment in a line: ELISA, human IL10R1 coated at 5 ug/mL, detection with goat anti-hIgG-HRP.
Method: Human IL10R1 (R&D, 9100-R1-050) was diluted to 5 μg/mL with coating buffer (50 mM Na₂CO₃, NaHCO₃ pH 9.6), 100 μL/well, overnight at 4° C. After washing, the plates were sealed with 3% BSA-PBS for 1 h at 37° C. The heterodimer proteins of the present disclosure were respectively diluted from 2000 ng/mL and were then diluted 2-fold to a total of 11 concentrations, with the diluent (1% BSA-PBS) as a control, and incubated for 2 h at 37° C. Goat anti-hIgG-HRP (Sigma, A0170) was added and incubated for 1 h at 37° C. The soluble one-component TMB substrate developing solution was added, and the developing was performed in dark at room temperature for 5-10 min. 2N H₂SO₄ 50 μL/well was added to terminate the color development reaction.
For a further experiment, the target named is Erb-(IL10)2. The experiment in a line: ELISA, human IL10R1 coated. (In general: ELISA stands for enzyme-linked immunosorbent assay.)

B1: reverse-(IL10)2-Fc9-a (Fc fusion)
chain 1: EPKSSDKTHTCPPCPAPELLGGPSVFLFPPKPKDTLMISRTPEVTCVVVDVSHEDPEVKFNWYVDGVEVHNAKTKPREEQYNSTYRVVSVLTVLHQDWLNGKEYKCKVSNKALPAPIEKTISKAKGQPREPQVYTLPPSRDELTKNQVSLSCGVKGFYPSDIAVEWESNGQPENNYKTTPPVLDSDGSFKLASKLTVDKSRWQQGNVFSCSVMHEALHNHYTQKSLSLSPGKGGGGSGGGGSGGGGSSPGQGTQSENSCTHFPGNLPNMLRDLRDAFSRVKTFFQMKDQLDNLLLKESLLEDFKGYLGCQALSEMIQFYLEEVMPQAENQDPDIKAHVNSLGENLKTLRLRLRRCHRFLPCENKSKAVEQVKNAFNKLQEKGIYKAMSEFDIFINYIEAYMTMKIRNGGGGSGGGGSGGGGSSPGQGTQSENSCTHFPGNLPNMLRDLRDAFSRVKTFFQMKDQLDNLLLKESLLEDFKGYLGCQALSEMIQFYLEEVMPQAENQDPDIKAHVNSLGENLKTLRLRLRRCHRFLPCENKSKAVEQVKNAFNKLQEKGIYKAMSEFDIFINYIEAYMTMKIRN
chain 2: DKTHTCPPCPAPELLGGPSVFLFPPKPKDTLMISRTPEVTCVVVDVSHENPEVKFNWYVDGVEVHNAKTKPREEQYNSTYRVVSVLTVLHQDWLNGKEYKCKVSNKALPAPIEKTISKAKGQPREPQVYTLPPSRDELTKNQVSLWCLVKGFYPSDIAVEWESNGQPENNYKTTPPVLDSDGSFFLYSALTVDKSRWQQGNVFSCSVMHEALHNHYTQKSLSLSPGK
notes: purified by protein A only; also called proteinaceous heterodimer of Group C
In general, EC50 refers to the concentration giving half of the maximal effect. B1: in the experiment with Human IL10R1, the concentration for a half-maximal effect (EC50) was found to be 0.0123 µg/mL.

Regarding B2, the binding result with Erb-(IL10)2 was “binds”.
